T1: Hla
T1 chain: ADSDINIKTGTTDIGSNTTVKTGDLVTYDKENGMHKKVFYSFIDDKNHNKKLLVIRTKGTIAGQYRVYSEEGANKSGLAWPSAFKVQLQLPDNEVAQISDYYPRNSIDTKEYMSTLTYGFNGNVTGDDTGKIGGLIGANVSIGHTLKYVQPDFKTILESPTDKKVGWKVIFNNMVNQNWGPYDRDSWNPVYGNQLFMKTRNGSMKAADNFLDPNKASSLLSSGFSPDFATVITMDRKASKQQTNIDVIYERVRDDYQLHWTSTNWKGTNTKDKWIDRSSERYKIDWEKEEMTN

T2: LukF
T2 chain: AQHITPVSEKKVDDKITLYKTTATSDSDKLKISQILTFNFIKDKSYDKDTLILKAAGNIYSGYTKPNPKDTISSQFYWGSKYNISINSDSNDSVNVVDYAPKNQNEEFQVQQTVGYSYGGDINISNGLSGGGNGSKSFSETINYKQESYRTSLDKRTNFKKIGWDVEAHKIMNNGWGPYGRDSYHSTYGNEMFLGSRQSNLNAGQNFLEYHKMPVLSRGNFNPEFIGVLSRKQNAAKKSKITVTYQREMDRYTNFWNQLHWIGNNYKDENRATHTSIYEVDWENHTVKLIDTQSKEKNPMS

T3: HlgB
T3 chain: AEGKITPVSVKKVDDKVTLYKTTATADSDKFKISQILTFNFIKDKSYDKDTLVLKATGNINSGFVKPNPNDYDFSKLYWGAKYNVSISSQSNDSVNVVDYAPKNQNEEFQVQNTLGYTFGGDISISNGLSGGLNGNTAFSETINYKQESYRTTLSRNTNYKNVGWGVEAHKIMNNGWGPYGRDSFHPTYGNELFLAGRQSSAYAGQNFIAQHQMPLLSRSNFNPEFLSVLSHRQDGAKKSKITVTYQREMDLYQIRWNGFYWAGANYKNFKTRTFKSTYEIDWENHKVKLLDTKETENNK

T4: LukD
T4 chain: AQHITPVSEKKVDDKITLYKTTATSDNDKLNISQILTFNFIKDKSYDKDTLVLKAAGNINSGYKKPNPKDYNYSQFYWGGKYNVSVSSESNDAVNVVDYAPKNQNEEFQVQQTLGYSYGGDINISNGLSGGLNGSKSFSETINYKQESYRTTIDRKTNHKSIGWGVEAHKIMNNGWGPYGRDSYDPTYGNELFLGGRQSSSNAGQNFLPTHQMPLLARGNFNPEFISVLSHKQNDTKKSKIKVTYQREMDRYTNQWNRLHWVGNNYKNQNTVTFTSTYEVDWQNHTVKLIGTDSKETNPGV


Columns and labels:
Hla = biological target: T1, Hla
LukF = biological target: T2, LukF; test: MSD solution equilibrium; Fab
HlgB = biological target: T3, HlgB; test: MSD solution equilibrium; Fab
LukD = biological target: T4, LukD; test: MSD solution equilibrium; Fab

Binder	Kd (Hla)	Kd (LukF)	Kd (HlgB)	Kd (LukD)
AB-28-6 (antibody, V domains shown) VH: QVQLQESGPGLVRPSETLSLTCAVSGYSISSGMGWGWIRQPPGKGLEWIGSIDQRGSTYYNPSLKSRVTISVDTSKNQFSLKLSSVTAADTAVYYCARDAGHAVDMDVWGKGTTVTVSS VL: DIQMTQSPSSVSASVGDRVTITCRASQGISRWLAWYQQKPGKAPKLLIYAASSLQSGVPSRFSGSGSGTDFTLTISSLQPEDFATYYCQQGYVFPLTFGGGTKVEIK	< 2 pM	16 pM	2.5 pM	400 pM
AB-28-7 (antibody, V domains shown) VH: QVQLQESGPGLVKPSETLSLTCAVSGYSISSGMGWDWIRQPPGKGREWIGSIDQRGSTYYNPSLEGRATISVDTSKNQFSLKLSSVTAADTAVYYCARDAGHGVDMDVWGKGTTVTVSS VL: DIQMTQSPSSVSASVGDRVTITCRASQGISRWLAWYQQKPGKAPKLLIYAASSLQSGVPSRFSGSGSGTDFTLTISSLQPEDFATYYCQQGYVFPLTFGGGTKVEIK	< 2 pM	52 pM	< 2 pM	290 pM
AB-28-11 (antibody, V domains shown) VH: QVQLQESGPGLVKPSETLSLTCAVSGYSISSGMGWDWIRQPPGKGLEWIGSIDQRGSTYYNPSLEGRVTISVDTSKNQFSLKLSSVTAADTAVYYCARDAGHGVDMDVWGKGTTVTVSS VL: DIQMTQSPSSVSASVGDRVTITCRASQGISRWLAWYQQKPGKAPKLLIYAASSLQSGVPSRFSGSGSGTDFTLTISSLQPEDFATYYCQQGYVFPLTFGGGTKVEIK	< 2 pM	71 pM	3 pM	1200 pM
AB-28 (antibody, V domains shown) VH: QVQLQESGPGLVKPSETLSLTCAVSGYSISSGMGWGWIRQPPGKGLEWIGSIDQRGSTYYNPSLKSRVTISVDTSKNQFSLKLSSVTAADTAVYYCARDAGHGVDMDVWGKGTTVTVSS VL: DIQMTQSPSSVSASVGDRVTITCRASQGISRWLAWYQQKPGKAPKLLIYAASSLQSGVPSRFSGSGSGTDFTLTISSLQPEDFATYYCQQGYVFPLTFGGGTKVEIK	< 2 pM	130 pM	5 pM	2200 pM
AB-28-10 (antibody, V domains shown) VH: QVQLQESGPGLVKPSETLSLTCAVSGYSISSGMGWGWIRQPPGKGLEWIGSIDQRGSTYYNPSLKSRVTISVDTSKNQFSLKLSSVTAADTAVYYCARDAGHAVDMDVWGKGTTVTVSS VL: DIQMTQSPSSVSASVGDRVTITCRASQGISRWLAWYQQKPGKAPKLLIYAASSLQSGVPSRFSGSGSGTDFTLTISSLQPEDFATYYCQQGYVFPLTFGGGTKVEIK	< 2 pM	17 pM	6 pM	450 pM
AB-28-4 (antibody, V domains shown) VH: QVQLQESGPGLVKPSETLSLTCAVSGYPISSGMGWGWIRQPPGKGLEWIGRIDQRGSTYYNPSLKSRATISVDTSKNQFSLKLSSVTAADTAVYYCARDAGHGVDMDVWGKGTTVTVSS VL: DIQMTQSPSSVSASVGDRVTITCRASQGISRWLAWYQQKPGKAPKLLIYAASSLQSGVPSRFSGSGSGTDFTLTISSLQPEDFATYYCQQGYVFPLTFGGGTKVEIK	23 pM	–	140 pM	86 pM
AB-28-5 (antibody, V domains shown) VH: QVQLQESGPGLVKPSETLSLTCAVSGYSISSGMGWGWIRQPPGKGLEWIGRVDQRGSTYYNPSLKSRVTISVDTSKNQFSLKLSSVTAADTAVYYCARDAGHGVDMDVWGKGTTVTVSS VL: DIQMTQSPSSVSASVGDRVTITCRASQGISRWLAWYQQKPGKAPKLLIYAASSLQSGVPSRFSGSGSGTDFTLTISSLQPEDFATYYCQQGYVFPLTFGGGTKVEIK	30 pM	–	160 pM	160 pM
AB-28-3 (antibody, V domains shown) VH: QVQLQESGPGLVKPSETLSLTCAVSGYSISSGMGWGWIRQPPGKGLEWIGSVDQRGSTYYNPSLKSRVTISVDTSKNQFSLKLSSVTAADTAVYYCARDAGHGADMDVWGKGTTVTVSS VL: DIQMTQSPSSVSASVGDRVTITCRASQGISRWLAWYQQKPGKAPKLLIYAASSLQSGVPSRFSGSGSGTDFTLTISSLQPEDFATYYCQQGYVFPLTFGGGTKVEIK	37 pM	< 3 pM	18 pM	1700 pM
AB-28-8 (antibody, V domains shown) VH: QVQLQESGPGLVKPSETLSLTCAVSGYSISSGMGWDWIRQPPGKGLEWIGSIDQRGSTYYNPPLESRVTISVDTSKNQFSLKLSSVTAADTAVYYCARDAGHGVDMDVWGKGTTVTVSS VL: DIQMTQSPSSVSASVGDRVTITCRASQGISRWLAWYQQKPGKAPKLLIYAASSLQSGVPSRFSGSGSGTDFTLTISSLQPEDFATYYCQQGYVFPLTFGGGTKVEIK	< 2 pM	46 pM	2 pM	780 pM
AB-28-13 (antibody, V domains shown) VH: QVQLQESGPGLVKPSETLSLTCAVSGYSISSGMGWDWIRQPPGKGLEWIGSIDQRGSTYYNPSLEGRATISVDTSKNQFSLKLSSVTAADTAVYYCARDAGHGVDMDVWGKGTTVTVSS VL: DIQMTQSPSSVSASVGDRVTITCRASQGISRWLAWYQQKPGKAPKLLIYAASSLQSGVPSRFSGSGSGTDFTLTISSLQPEDFATYYCQQGYVFPLTFGGGTKVEIK	< 2 pM	89 pM	3 pM	790 pM
AB-28-12 (antibody, V domains shown) VH: QVQLQESGPGLVKPSETLSLTCAVSGYSISSGMGWDWIRQPPGKGREWIGSIDQRGSTYYNPSLEGRVTISVDTSKNQFSLKLSSVTAADTAVYYCARDAGHGVDMDVWGKGTTVTVSS VL: DIQMTQSPSSVSASVGDRVTITCRASQGISRWLAWYQQKPGKAPKLLIYAASSLQSGVPSRFSGSGSGTDFTLTISSLQPEDFATYYCQQGYVFPLTFGGGTKVEIK	< 2 pM	63 pM	< 2 pM	460 pM
AB-28-9 (antibody, V domains shown) VH: EVQLQESGPGLVRPSETLSLTCAVSGYSISSGMGWGWIRQPPGKGLEWIGSIDQRGSTYYNPSLKSRVTISVDTSKNQFSLKLSSVTAADTAVYYCARDAGHAVDMDVWGKGTTVTVSS VL: DIQMTQSPSSVSASVGDRVTITCRASQGISRWLAWYQQKPGKAPKLLIYAASSLQSGVPSRFSGSGSGTDFTLTISSLQPEDFATYYCQQGYVFPLTFGGGTKVEIK	< 2 pM	130 pM	5 pM	2200 pM
